Source: the supplement of paper PMC11865577

Assays:
Assay in all cases: pull-down binding Z-score (relative to library population); higher = stronger binding
Conditions in all cases: RNA library: Library-2
[1] = test system: TO-3-N3 (biotin conjugate)
In short: (§1)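 Binding is given as a Z-score against the library mean and standard deviation, calculated after removing the beads-only signal and averaging barcoded replicate probes without their highest and lowest values. Cy5- or Cy3-end-labelled RNA library (1 μg) was heat-folded in phosphate/NaCl/KCl buffer and incubated 60 min at 25 °C with streptavidin beads bearing 100 pmol of biotin-conjugated small molecule. After three washes, RNA eluted in hot SDS was hybridised to a DNA barcode microarray for 20 h at 55.5 °C.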

[2] = test system: TO-3-N3-2 (biotin conjugate)
In short: as §1

TO-N3 (biotin conjugate) = test system: TO-N3 (biotin conjugate)
In short: as §1

[3] = test system: TO-N3-2 (biotin conjugate)
In short: as §1

GGGUUUACAAACAAUUUGAUACUUAUAACCU [DMSMaPseq_invitro_SARS-CoV-2_Motif_347]
pull-down binding Z-score [1]: -0.652
pull-down binding Z-score [2]: -0.105
pull-down binding Z-score (TO-N3 (biotin conjugate)): -0.828
pull-down binding Z-score [3]: -1.11

GGUAAAAUUGUUAAUAAUUGGUUGAAGCAGUUAAUUAAAGUUACACUUGUGUUCCUUUUUGUUGCUGCUAUUUUCUAUUUAAUAACACC [DMSMaPseq_invitro_SARS-CoV-2_Motif_156]
pull-down binding Z-score [1]: -0.485
pull-down binding Z-score [2]: -0.271
pull-down binding Z-score (TO-N3 (biotin conjugate)): -0.828
pull-down binding Z-score [3]: -1.04

GGUAAUUAUACAGUUUCCUGUUUACC [DMSMaPseq_invitro_SARS-CoV-2_Motif_504]
pull-down binding Z-score [1]: -0.536
pull-down binding Z-score [2]: -0.713
pull-down binding Z-score (TO-N3 (biotin conjugate)): -1.05
pull-down binding Z-score [3]: -0.867

GGUAAUUAUACAGUUUCCUGUUUACCUUUUACAAUUAAUUGCC [SHAPE_invitro_SARS-CoV-2_Motif_513]
pull-down binding Z-score [1]: -0.718
pull-down binding Z-score [2]: 0.0742
pull-down binding Z-score (TO-N3 (biotin conjugate)): -1.04
pull-down binding Z-score [3]: -1.1

GGUACAACAACUUACAAAUUAAAUGUUGGUGAUUAUUUUGUGCU [SHAPE_invivo_SARS-CoV-2_Motif_319]
pull-down binding Z-score [1]: -0.537
pull-down binding Z-score [2]: -0.134
pull-down binding Z-score (TO-N3 (biotin conjugate)): -0.509
pull-down binding Z-score [3]: -0.524

GGUACAUUUACUUGUGCU [SHAPE_invivo_SARS-CoV-2_Motif_118]
pull-down binding Z-score [1]: 0.677
pull-down binding Z-score [2]: -0.344
pull-down binding Z-score (TO-N3 (biotin conjugate)): 0.678
pull-down binding Z-score [3]: -0.222

GGUACGUUAAUAGUUAAUAGCGUACUUCUUUUUCUUGCUUUCGUGGUAUUCUUGCUAGUUACACUAGCCAUCCUUACUGCGCUUCGAUUGUGUGCGUACU
pull-down binding Z-score [1]: 0.654
pull-down binding Z-score [2]: -0.0614
pull-down binding Z-score (TO-N3 (biotin conjugate)): 0.41
pull-down binding Z-score [3]: -0.294

GGUCAAAUCAAUGAUAUGAUUUUAUC
pull-down binding Z-score [1]: -0.859
pull-down binding Z-score [2]: -0.505
pull-down binding Z-score (TO-N3 (biotin conjugate)): -1.26
pull-down binding Z-score [3]: -1.3

GGUCAGAAUGAUC [IAV_invivo_NP_5_Motif_12+IAV_invivo_NP_5_Motif_12]
pull-down binding Z-score [1]: -0.394
pull-down binding Z-score [2]: -0.0405
pull-down binding Z-score (TO-N3 (biotin conjugate)): -0.601
pull-down binding Z-score [3]: -0.437

GGUCCAGAACAAACCCAAGGAAAUUUUGGGGACC
pull-down binding Z-score [1]: 0.213
pull-down binding Z-score [2]: 0.197
pull-down binding Z-score (TO-N3 (biotin conjugate)): 0.0164
pull-down binding Z-score [3]: -0.00332

GGUCCAGCAACAGCUCAAAUGGCC [IAV_invivo_PB1_2_Motif_29+IAV_invivo_PB1_2_Motif_29]
pull-down binding Z-score [1]: -0.414
pull-down binding Z-score [2]: -0.356
pull-down binding Z-score (TO-N3 (biotin conjugate)): -0.26
pull-down binding Z-score [3]: 0.392

GGUCUAUAUGCC [SHAPE_invivo_SARS-CoV-2_Motif_218]
pull-down binding Z-score [1]: 0.153
pull-down binding Z-score [2]: -0.349
pull-down binding Z-score (TO-N3 (biotin conjugate)): 0.0896
pull-down binding Z-score [3]: -0.475

GGUCUCCGACGGAGGCC [IAV_invivo_PB1_2_Motif_32+IAV_invivo_PB1_2_Motif_32]
pull-down binding Z-score [1]: 0.0169
pull-down binding Z-score [2]: -0.224
pull-down binding Z-score (TO-N3 (biotin conjugate)): -0.183
pull-down binding Z-score [3]: -1.15

GGUCUGCAGGACU [IAV_invivo_PA_3_Motif_27+IAV_invivo_PA_3_Motif_27]
pull-down binding Z-score [1]: 0.0311
pull-down binding Z-score [2]: -0.237
pull-down binding Z-score (TO-N3 (biotin conjugate)): -0.125
pull-down binding Z-score [3]: -0.231

GGUGAAGGACGGGUCCAGUAGUUCGCUACUGUUGAGUAGAGUGUGAGCUCC [BabySpinach]
pull-down binding Z-score [1]: 1.09
pull-down binding Z-score [2]: 0.648
pull-down binding Z-score (TO-N3 (biotin conjugate)): 2.08
pull-down binding Z-score [3]: 2.02

GGUGACAACAACC [IAV_invivo_M1_M2_7_Motif_11+IAV_invivo_M1_M2_7_Motif_11]
pull-down binding Z-score [1]: -0.283
pull-down binding Z-score [2]: -0.31
pull-down binding Z-score (TO-N3 (biotin conjugate)): -0.366
pull-down binding Z-score [3]: -0.457

GGUGCUCCCAAGAGGGAAGCU [IAV_invivo_NP_5_Motif_18+IAV_invivo_NP_5_Motif_18]
pull-down binding Z-score [1]: -0.0194
pull-down binding Z-score [2]: -0.165
pull-down binding Z-score (TO-N3 (biotin conjugate)): 0.405
pull-down binding Z-score [3]: 0.775

GGUGGAAUUGGACGAUUCUACAUCCAAAUGUGCACC [IAV_invivo_NP_5_Motif_3+IAV_invivo_NP_5_Motif_3]
pull-down binding Z-score [1]: -0.714
pull-down binding Z-score [2]: -0.333
pull-down binding Z-score (TO-N3 (biotin conjugate)): -0.779
pull-down binding Z-score [3]: -0.454

GGUGGCAAACCUUGUAUCAAAGUAGCCACU [SHAPE_invitro_SARS-CoV-2_Motif_216]
pull-down binding Z-score [1]: -0.569
pull-down binding Z-score [2]: -0.373
pull-down binding Z-score (TO-N3 (biotin conjugate)): -0.798
pull-down binding Z-score [3]: -0.605

GGUGGUAUUGUAGCUAUCGUAGUAACAUGCCUUGCC
pull-down binding Z-score [1]: 0.56
pull-down binding Z-score [2]: -0.0179
pull-down binding Z-score (TO-N3 (biotin conjugate)): 0.693
pull-down binding Z-score [3]: 0.0259

GGUGUGGAUGGCAUGCC [IAV_invivo_NP_5_Motif_17+IAV_invivo_NP_5_Motif_17]
pull-down binding Z-score [1]: -0.0853
pull-down binding Z-score [2]: -0.0718
pull-down binding Z-score (TO-N3 (biotin conjugate)): -0.121
pull-down binding Z-score [3]: 0.0568

GGUGUUGCAGGAGCCUUAAAUAAGGCUACUAACAAUGCC [SHAPE_invivo_SARS-CoV-2_Motif_68]
pull-down binding Z-score [1]: -0.697
pull-down binding Z-score [2]: -0.474
pull-down binding Z-score (TO-N3 (biotin conjugate)): -0.882
pull-down binding Z-score [3]: -1.05

GGUGUUGUUGGAGAAGGUUCCGAAGGUCUUAAUGACAACCUUCUUGAAAUACUCC
pull-down binding Z-score [1]: 0.245
pull-down binding Z-score [2]: 0.0401
pull-down binding Z-score (TO-N3 (biotin conjugate)): 0.261
pull-down binding Z-score [3]: 0.062

GGUGUUUAUUACC
pull-down binding Z-score [1]: -0.454
pull-down binding Z-score [2]: -0.382
pull-down binding Z-score (TO-N3 (biotin conjugate)): -0.968
pull-down binding Z-score [3]: -0.855

GGUGUUUUAACU
pull-down binding Z-score [1]: -0.133
pull-down binding Z-score [2]: -0.285
pull-down binding Z-score (TO-N3 (biotin conjugate)): -0.303
pull-down binding Z-score [3]: -0.847

GGUGUUUUAACUGCUGUGGUUAUACCUACUAAAAAGGCUGGUGGCACUACUGAAAUGCU
pull-down binding Z-score [1]: -0.83
pull-down binding Z-score [2]: -0.12
pull-down binding Z-score (TO-N3 (biotin conjugate)): -0.521
pull-down binding Z-score [3]: -0.153

GGUUAUAAGAAACC
pull-down binding Z-score [1]: -0.083
pull-down binding Z-score [2]: -0.849
pull-down binding Z-score (TO-N3 (biotin conjugate)): -0.351
pull-down binding Z-score [3]: -0.964

GGUUCAACUCUCCCUAGGAGGUCUGGAGCC [IAV_invivo_NP_5_Motif_11+IAV_invivo_NP_5_Motif_11]
pull-down binding Z-score [1]: -0.418
pull-down binding Z-score [2]: -0.309
pull-down binding Z-score (TO-N3 (biotin conjugate)): -0.225
pull-down binding Z-score [3]: 0.0598

GGUUCACUAUAUGUUAAACCAGGUGGAACC
pull-down binding Z-score [1]: 0.612
pull-down binding Z-score [2]: 0.221
pull-down binding Z-score (TO-N3 (biotin conjugate)): 0.506
pull-down binding Z-score [3]: -0.369

GGUUCGUGUCUUUAGCUAUAGAUGCUUACC
pull-down binding Z-score [1]: 0.877
pull-down binding Z-score [2]: 0.206
pull-down binding Z-score (TO-N3 (biotin conjugate)): 0.913
pull-down binding Z-score [3]: -0.066

GGUUGGGAAAUUGUUAAAUUUAUCUCAACC
pull-down binding Z-score [1]: -0.472
pull-down binding Z-score [2]: -0.155
pull-down binding Z-score (TO-N3 (biotin conjugate)): -0.616
pull-down binding Z-score [3]: -0.802

GGUUGGGAGAAGAGCAACAGCC [IAV_invivo_PB2_1_Motif_16+IAV_invivo_PB2_1_Motif_16]
pull-down binding Z-score [1]: 0.351
pull-down binding Z-score [2]: 0.479
pull-down binding Z-score (TO-N3 (biotin conjugate)): 0.776
pull-down binding Z-score [3]: 1.09

GGUUGUAUGGUACAAGUAACUUGUGGUACAACU
pull-down binding Z-score [1]: -0.51
pull-down binding Z-score [2]: -0.128
pull-down binding Z-score (TO-N3 (biotin conjugate)): -0.61
pull-down binding Z-score [3]: -0.264
